Measured values as given in article PMC11574045 (2024).

Target: GLUP (macrocyclic version of glup) (disulfide-cyclization and C-terminal amidation (results); head-to-side-chain cross-linking with 1,3-dibromomethylbenzene (methods))

B1: TEAD4, purified recombinant protein (natural protein)
chain: PAPPWQGRSVASSKLWMLEFSAFLEQQQDPDTYNKHLFVHIGQSSPSYSDPYLEAVDIRQIYDKFPEKKGGLKDLFERGPSNAFFLVKFWADLNTNIEDEGSSFYGVSSQYESPENMIITCSTKVCSFGKQVVEKVETEYARYENGHYSYRIHRSPLCEYMINFIHKLKHLPEKYMMNSVLENFTILQVVTNRDTQETLLCIAYVFEVSASEHGAQHHIYRLVKE
- Kd: 4.55 µM
